According to patent US20250043313:

Molecular target: SuperFi-Cas9 (7-D Cas9) 7-D: seven RuvC loop residues shown in FIG. 4b each mutated to Asp (individual residues not listed in text) (Streptococcus pyogenes) (UniProt Q99ZW2)
Assay: cleavage_in_vitro
Conditions: PAM TGG, 10 mM Mg2+, 37 C

Sequence	activity (kobs +/- 0.1, amplitude 7.7 nM, 6.3-fold preference over 18-20 MM in competition) [s⁻¹]	activity (kobs +/- 0.0002, amplitude 8.4 nM, 500-fold slower than on-target) [s⁻¹]
GACGCAUAAAGAUGAGACGC / AGCTGACGTTTGTACTCCAGCGTCTCATCTTTATGCGTCAGCAGAGATTTCTGCT / AGCAGAAATCTCTGCTGACGCATAAAGATGAGACGCTGGAGTACAAACGTCAGCT [sgRNA ; On-target DNA]	2	–
GACGCAUAAAGAUGAGACGC / AGCTGACGTTTGTACTCCAGCGTCTCATCTTTATGCCAGAGCAGAGATTTCTGCT / AGCAGAAATCTCTGCTCTGGCATAAAGATGAGACGCTGGAGTACAAACGTCAGCT [sgRNA ; 18-20 MM DNA]	–	0.004
